Reference: PMC4278837, “A Cyclic Peptidic Serine Protease Inhibitor: Increasing Affinity by Increasing Peptide Flexibility” (PLoS ONE, 2014)
Values belong to the substance of their own block, whether it stands above or below them.

Assays:
[1] = target: huPA-H99Y (full length human urokinase-type plasminogen activator with H99Y) (human); assay: SPR; Biacore T200; uPA variant amine-coupled to a CM5 chip (about 500 RU); peptides injected in HBS with 0.1% BSA, 30 µL/min, 25°C, pH 7.4; 1:1 kinetic fit; KD = koff/kon
huPA-H99Y-Q192A (human) = assay: enzyme inhibition (steady state, chromogenic substrate S-2444); about 2 nM enzyme (purified or conditioned medium of transfected cells) pre-incubated 15 min with varied peptide in HBS (10 mM HEPES pH 7.4, 140 mM NaCl) with 0.1% BSA at 37°C; substrate about KM; fit for competitive inhibition; highest peptide concentration 400 µM
[2] = target: huPA-H99Y (full length human urokinase-type plasminogen activator with H99Y) (human); assay: as above
huPA-H99Y-K143A (human) = assay: as above
huPA-H99Y-R35A (human) = assay: as above
huPA-H99Y-V41A (human) = assay: as above
[3] = target: recombinant catalytic domain of huPA-H99Y (residues 159-411) (human) (UniProt P00749); assay: ITC; MicroCal ITC200; peptide injected into 5-50 µM huPA-H99Y catalytic domain; 20 mM sodium phosphate pH 7.4, 140 mM NaCl, 25°C; one-binding-site model

Substance: Mupain-1 R6A (peptide)
Ki [2]: > 1000 µM

Substance: Mupain-1 S5A (peptide)
Ki [2]: > 1000 µM

Substance: Mupain-1 Y4A (peptide)
Ki [2]: > 1000 µM

Substance: mupain-1 (peptide)
Kd [1]: 14.1 µM
koff [1]: 0.802 s⁻¹
kon [1]: 56900 M⁻¹ s⁻¹
Ki (huPA-H99Y-Q192A (human)): 33.2 µM
Ki (huPA-H99Y-K143A (human)): 56.6 µM
Ki (huPA-H99Y-R35A (human)): 39.5 µM
Ki (huPA-H99Y-V41A (human)): 32.4 µM
Kd [3]: 5.04 µM
dH [3]: -8.72 kcal/mol
stoichiometry N [3]: 1.09

Further lines, results first:

Kd [1]: 1.41 µM
koff [1]: 0.366 s⁻¹
kon [1]: 260000 M⁻¹ s⁻¹
Ki (huPA-H99Y-Q192A (human)): 4.85 µM
Ki [2]: 5.99 µM
Ki (huPA-H99Y-K143A (human)): 8.74 µM
Ki (huPA-H99Y-R35A (human)): 2.68 µM
Ki (huPA-H99Y-V41A (human)): 7.2 µM
Kd [3]: 1.17 µM
dH [3]: -9.06 kcal/mol
stoichiometry N [3]: 1.03
Substance: Mupain-1 D9A (peptide)

Ki [2]: 19.1 µM
Substance: Mupain-1 L8A (peptide)

Ki [2]: > 1000 µM
Substance: Mupain-1 P2A (peptide)

Ki [2]: 44 µM
Substance: Mupain-1 Y7A (peptide)
